Data as given in US11752210B2, “Sensitizing composition using electromagnetic waves for thermal therapy of cancers, and cancer therapy using same” (JINIS CO., LTD., priority 2013, dated 2023).

How the values were obtained:
[1] = test system: NCI-H460-luc2 tumor xenograft; assay: Temperature of normal and tumorous tissue of tumor xenograft mice on application of electromagnetic waves after sensitizer (Example 1, FIGS. 9 to 11); type: in vivo, BALB/c athymic nude mice; settings: i.v. iron sucrose 1 mg/kg or transferrin 20 mg/kg, 4 hr after administration, 100 W for 3 min
Method: To this end, a lung cancer cell line NCI-H460-luc2 (Califer Life Sciences) was cultured, and 5×10^6 cells were subcutaneously injected into 6 to 8-week-old female BALB/c athymic nude mice (Damul Science), and the mice were bred for about 10 days so as to grow tumorous tissue to a size of 100 mm^3 or more, yielding the tumor xenograft animal models for the evaluation of cancer treatment effects.
As the sensitizing composition for thermal therapy, iron sucrose was prepared in the same manner as in Test Example 1, and 0.1 ml of the iron sucrose aqueous solution having a concentration of 0.2 mg/ml was intravenously injected into the established tumor xenograft mice so as to reach a dose of 1 mg/kg.
As the sensitizing composition for thermal therapy, “iron ion-bound apotransferrin” (transferrin) was prepared in the same manner as in Test Example 3, and 0.1 ml of the transferrin aqueous solution having a concentration of 5 mg/ml was intravenously injected into the established tumor xenograft mice so as to reach a dose of 20 mg/kg.
As the control, saline was administered. 4 hr after administration, electromagnetic waves were applied in an energy dose of 100 W for 3 min using a radio-frequency hyperthermia system (EHY-2000, Oncothermia), and the temperatures of normal tissue and tumorous tissue were measured using a thermal imaging device (E60, Korea Rental, Korea).

[2] = test system: NCI-H460-luc2 tumor xenograft; assay: Thermal cancer therapy with repeated sensitizer dosing, weekly bioluminescence imaging of tumor size over four weeks (Example 1, FIG. 13); type: in vivo, BALB/c athymic nude mice; settings: i.v. three times per week, 100 W 30 min or more
Method: After 4 hr, thermal treatment for 30 min or more using a radio-frequency hyperthermia system (EHY-2000, Oncothermia) with an energy dose of 100 W was performed for a total of four weeks, and the size of tumorous tissue was monitored every week. […] In the group to which transferrin was administered, 0.1 ml of the transferrin aqueous solution having a concentration of 5 mg/ml was intravenously injected. As such, the non-treated group and the saline-treated group were used as controls.
In order to analyze the size of tumorous tissue, bioluminescence imaging was regularly performed at an interval of one week, and analysis was performed using Igor Pro imaging analysis software.

[3] = test system: cancer cell line NCI-H460; assay: In vitro temperature elevation in cancer cells cultured with transferrin, after electromagnetic waves (Test Example 4); type: cell-based; settings: for increase in temperature before and after electromagnetic waves: cancer cell line, cultured 4 hr, washed, 100 W for 3 min
Method: (§1) The temperature elevation by the metal ion-noncovalently bound apotransferrin was evaluated through in vitro cell testing. A cancer cell line […] Sciences) in which the transferrin receptor was over-expressed was cultured, and 0.1 ml of a cell suspension at a concentration of 1×10^3 cells/ml was aliquoted into a 96-well plate and cultured in a CO2 incubator at 37° C. for 12 hr. As a control, normal human cells, i.e. stromal cells, were cultured, and 0.1 ml thereof was aliquoted at a concentration of 3×10^3 cells/ml into a 96-well plate and cultured in a CO2 incubator at 37° C. for 12 hr. […] After completion of the culturing of transferrin and cells, each plate was washed with a DMEM medium, thus removing transferrin that was not introduced into the cells. Next, each plate was exposed to an energy dose of 100 W for 3 min using a radio-frequency hyperthermia system (EHY-2000, Oncothermia), and changes in the temperature were measured using a thermal imaging camera ([…], Korea Rental, Korea).

[4] = In vivo accumulation of iron ion in normal and tumorous tissue after transferrin, ICP-MS (Test Example 6); design: species or system BALB/c athymic nude mice; concentration of iron ion (ICP-MS): unit not given here; settings: 16 mg/kg i.v., after 24 hr
Method: In order to evaluate the accumulation capacity of “metal ion-noncovalently bound apotransferrin” (transferrin) in tumorous tissue, the iron-bound transferrin aqueous solution was administered to the mice, after which the concentrations of the metal ions were measured in normal tissue and tumorous tissue. The iron ion-bound apotransferrin (transferrin) aqueous solution was prepared at 4 mg/ml, and 0.1 ml thereof was intravenously injected in a dose of 16 mg/kg. After 24 hr, each tissue was sampled in the same manner as in Test Example 5 and the concentration of the metal ion was measured through ICP-MS (Varian 800-MS, Palo Alto, US).

[5] = test system: NCI-H460-luc2 tumor xenograft; assay: Thermal cancer therapy with sensitizer, bioluminescence imaging of tumor size in the last week (Example 1, FIG. 12); type: in vivo, BALB/c athymic nude mice; settings: i.v. 1 mg/kg metal ion-bound material or 20 mg/kg transferrin, 100 W 10 min, three times per week, four weeks
Method: Next, the potential to treat cancer was evaluated using the metal ion-bound material as the sensitizer upon thermal therapy. A lung cancer cell line NCI-H460-luc2 ([…] Sciences) was cultured, and 5×10^6 cells were subcutaneously injected into 6 to 8-week-old female BALB/c athymic nude mice (Damul Science), and the mice were bred for about 10 days so as to grow tumorous tissue to a size of 100 mm^3 or more, yielding the tumor xenograft animal models for the evaluation of cancer treatment effects. […] After 4 hr, thermal treatment was performed three times per week for a total of four weeks using a radio-frequency hyperthermia system (EHY-2000, Oncothermia) with an energy dose of 100 W for 10 min. As such, a non-treated group and a saline-treated group were set as controls. In order to analyze the size of tumorous tissue in the last week, bioluminescence imaging was performed. For bioluminescence of a luciferase-expressing cancer cell line NCI-H460-luc2, D-luciferin (Xenogen, USA) was intraperitoneally injected at a concentration of 150 mg luciferin/kg/d into the mice, the mice were anesthetized through inhalation using a mixture of isoflurane gas and oxygen, and luminous cancer cells were subjected to overlap photographing using a Xenogen imager (IVIS 200), and analyzed using Igor Pro imaging analysis software.

[6] = test system: normal human cells, i.e. stromal cells; assay: In vitro temperature elevation in normal cells cultured with transferrin, after electromagnetic waves (Test Example 4); type: cell-based; settings: normal cell line; all concentrations (0 to 5 mg/ml); cultured 4 hr, washed; 100 W for 3 min
Method: as §1

transferrin: iron ion-bound apotransferrin prepared by reacting ferric hydroxide solution with apotransferrin at 37° C. for 30 min
changes in the temperature before and after the application of electromagnetic waves ([1]; normal tissue): 1 °C
changes in the temperature before and after the application of electromagnetic waves ([1]; tumorous tissue): 2 °C
growth of cancer upon thermal treatment using electromagnetic waves (bioluminescence imaging) ([2]; 0.1 ml of 0.2 mg/ml (iron dextran, iron sucrose) or 5 mg/ml (transferrin), four weeks): remarkably inhibited
size of cancer after four weeks (bioluminescence imaging) ([2]; 0.1 ml of 5 mg/ml, after four weeks): disappeared completely
selectivity of temperature elevation depending on concentration, cancer vs normal cell line ([3]; FIGS. 5 to 8): more selective in the cancer cell line than in the normal cell line
increase in temperature before and after electromagnetic waves ([3]; 1 mg/ml): 11.9 °C
increase in temperature before and after electromagnetic waves ([3]; 5 mg/ml): 12.6 °C
Fold increase of iron ion vs saline ([4]; Brain): 1.26
concentration of iron ion (ICP-MS) ([4]; Brain): 28.4 ± 3.5
Fold increase of iron ion vs saline ([4]; Heart): 2.18
concentration of iron ion (ICP-MS) ([4]; Heart): 70.1 ± 12.3
Fold increase of iron ion vs saline ([4]; Kidney): 0.72
concentration of iron ion (ICP-MS) ([4]; Kidney): 41.2 ± 1.7
Fold increase of iron ion vs saline ([4]; Liver): 1.27
concentration of iron ion (ICP-MS) ([4]; Liver): 94.7 ± 8.1
Fold increase of iron ion vs saline ([4]; Lung): 1.55
concentration of iron ion (ICP-MS) ([4]; Lung): 43.9 ± 17.9
Fold increase of iron ion vs saline ([4]; Muscle): 0.87
concentration of iron ion (ICP-MS) ([4]; Muscle): 25.7 ± 5.2
Fold increase of iron ion vs saline ([4]; Stomach): 1.67
concentration of iron ion (ICP-MS) ([4]; Stomach): 46.4 ± 14.9
concentration of iron ion (ICP-MS) ([4]; Tumor): 43.9 ± 9.7
Fold increase of iron ion vs saline ([4]; Tumor, 16 mg/kg): ≥ 3.2
Fold increase of iron ion vs saline ([4]; Tumor, listed as Transferrin, 16 mg/kg): 3.25
cancer treatment effects through thermal therapy (size of tumorous tissue, bioluminescence imaging) [5]: excellent
change in temperature before and after electromagnetic waves [6]: about 7 °C
